Experimental data as given in US20230212319A1, “NOVEL ANTIGEN BINDING DOMAINS AND SYNTHETIC ANTIGEN RECEPTORS INCORPORATING THE SAME” (University of Southern California, priority 2020, published 2023).

Tests used:
Assay type in all cases: cell-based
LNCaP cells = experiment: JNG assay, co-culture with LNCaP cells; settings: for NFAT-GFP ASSAY: LNCaP: co-culture with LNCaP
Procedure: Cellular supernatant is collected and assayed for the induction of cytokines (e.g., IL2).
JNG (Jurkat cells expressing EGFP under an NFAT promoter) were infected with lentiviral vectors encoding different single chain and multi-chain SARs by spinfection in the presence of 8 µg/ml of Polybrene® (Sigma, Catalog no. H9268). The Jurkat-NFAT-GFP cells are engineered in such a way that the IL-2 promoter, which carries NFAT binding sites, is cloned upstream of the GFP gene. These cells have been used to study signaling via TCR and CAR. The different SARs were stably expressed in Jurkat NFAT-GFP cells by lentiviral mediated gene transfer, followed by selection with puromycin or blasticidin. No drug selection was used in case the construct lacked an antibiotic resistance gene. The SAR-expressing Jurkat-NFAT-GFP cells were cocultured with the target cells at E:T ratio of approximately 1:2 for approximately 4 hours to 18 hours. When the interaction between SIRs and their target antigen results in activation of the NFAT pathway, GFP expression is induced. […] GFP expression was monitored by FACS analysis. The Jurkat-NFAT-GFP (parental) cells were used as control. The structure of different constructs can be determined based on their names. For example, the construct CD8SP-CD19-hu-mROO5-1-vL-[hTCRa-C SDVP]-F-F2A-Spe-IgHSP-Apa-CD20-vHH-2HCD25-G4S-CDl9-hu-mROO5-1-vH-Mlu-[hTCRb-KACIAH]-F-P2A-PAC has the following modules from 5′ to 3′ direction: a CD8 signal peptide (CD8SP), the CD19 targeting hu-mROO5-1 vL fragment (CD19-hu-mROO5-1), Xho1 cloning site, human TCRa constant chain containing CSDVP mutations (hTCRa-CSDVP), Furine cleavage site (F), F2A ribosomal skip sequence (F2A), SpeI site, human IgH signal peptide (IgHSP), Apa I restriction enzyme site, camelid CD20-2HCD25-VHH module targeting CD20, BamHI restriction enzyme site, Glycinex4-serine linker (G4S), BstI restriction enzyme site, CD19-hu-mROO5-1-vH fragment targeting CD19, Mlu I restriction enzyme site, human TCRb constant chain containing KACIAH mutations ([hTCRb-KACIAH]), Furine cleavage site (F), P2A ribosomal skip sequence and Puromycin resistance gene (PAC). The sequence of the other constructs in the table can be similarly determined from their names and by referring to the different Tables of this disclosure that provide the names and SEQ ID NO of the different modules. Alternatively, the composition and modular architecture of the different SAR constructs can be determined from their sequences by bioinformatics tools, including using nucleic acid and amino acids homology searches. A SAR is considered positive in the assay in case the SAR expressing Jurkat-NFAT-GFP cells show greater % GFP positive cells when cultured with the target cell line as compared to parental Jurkat-NFAT-GFP cells. The signs +/-, +, 2+ etc. after the name of the cell lines indicate the relative degree of positivity on the Jurkat-NFAT-GFP assay as measured by the % GFP positive cells after culture of the SAR expressing Jurkat-NFAT-GFP cells with that cell line above the % GFP cells observed in parental Jurkat NFAT-GFP cells serving as controls. In general, the number +/-, +, 2+, 3+, 4+, 5+ refer to approximately 5%, 10%, 20%, 30%, 40% and 50% GFP positive cells. The % of GFP induction in the above assay is dependent not only the relative strength of the SAR but also, among other factors, on the relative level of expression of the SAR in the JNG cells and the relative level of expression of the target antigen in the target cell line. To control for the difference in gene transduction efficiency of the different SAR constructs, the experiment was conducted with JNG cells transduced with SAR constructs co-expressing a drug resistance gene (e.g., puromycin or PAC) followed by drug selection to generate a stable population of SAR-expressing cells. […]

RAJI cells = experiment: JNG assay, co-culture with RAJI cells; settings: JNG cells expressing construct, co-culture with Raji
How it was run: (§1)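 Jurkat NFAT-GFP (JNG) cells stably transduced with SARs by lentivirus, with drug selection where the construct carried a resistance gene, then co-cultured with target cells at E:T ~1:2 for ~4–18 h. % GFP-positive cells measured by FACS against parental JNG; +/- to 5+ correspond to ~5–50% GFP-positive.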

RAJI-CD19-KO cells = experiment: JNG assay, co-culture with RAJI-CD19-KO cells; settings: co-culture with Raji-CD19-KO
How it was run: as §1

L363 cells = experiment: JNG assay, co-culture with L363 cells; settings: co-culture with L363
How it was run: as §1

Nalm6 cells = experiment: JNG assay, co-culture with Nalm6 cells; settings: co-culture with Nalm6
How it was run: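 Drug-selected populations of SAR-expressing Jurkat-NFAT-GFP cells meet target cells (about 1:2 E:T) for roughly 4–18 h. Flow cytometry gives % GFP+ cells, graded +/- to 5+ (≈5% to ≈50%) relative to the parental control.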

RS;411 = experiment: JNG assay, co-culture with RS;411 cells; settings: co-culture with RS411
How it was run: as §1

B1: 22044 (protein)
chain: MALPVTALLLPLALLLHAARPQLQLQESGPGLVKPSETLSLTCTVSGDSISSGDYYWGWIRQPPGKGLEWIGHIYYSGVTYYNPSLKSRVTISVDTSRNQFSLKLSSVTAADTAVYYCTREDSSNWRSRGQGTLVTVSSLEGSMDPKDNCSKDANDTLLLQLTNTSAYYMYLLLLLKSVVYFAIITCCLLRRTAFCCNGEKSRAKRSGSGATNFSLLKQAGDVEENPGPTSMDWIWRILFLVGAATGAHSFEVQLVESGGGVVQPGRSLRLSCAASGFSFSGYGMHWVRQAPGKGLEWVAYISYDGSNKYYADSVKGRFTISRDNSKNTLYLQMNSLRAEDTAVYYCAKDPAWGLRLGESSSYDFDIWGQGTMVTVSSTRDKTHTCPPCPAIPEDTFFPSPESSCDVKLVEKSFETDTNLNFQNLSVIGFRILLLKVAGFNLLMTLRLWSSRAKRSGSGVKQTLNFDLLKLAGDVESNPGPSRGHMTEYKPTVRLATRDDVPRAVRTLAAAFADYPATRHTVDPDRHIERVTELQELFLTRVGLDIGKVWVADDGAAVAVWTTPESVEAGAVFAEIGPRMAELSGSRLAAQQQMEGLLAPHRPKEPAWFLATVGVSPDHQGKGLGSAVVLPGVEAAERAGVPAFLETSAPRNLPFYERLGFTVTADVEVPEGPRTWCMTRKPGA
NFAT-GFP ASSAY: LNCaP (LNCaP cells): +/- (refer to approximately 5%, 10%, 20%, 30%, 40% and 50% GFP positive cells)

B2: 22140 (protein)
chain: MALPVTALLLPLALLLHAARPACEVQLLESGGGLIQPGGSLRLSCAASGFTFSSHAMTWVRQAPGKGLEWVSAISGSGDYTHYADSVKGRFTISRDNSKNTVYLQMNSLRAEDSAVYYCAKDEDGGSLLGHRGQGTLVTVSSGTGGGGSGGGGSGGGGSEFDIQMTQSPSSLSASVGDRVTITCKASDHINNWLAWYQQKPGQAPKLLIYGATTLETGVPSRFSGSGSGTDYTLTISSLQPEDFATYYCQQSWNTPWTFGQGTKLEIKRLEGQPKANPTVTLFPPSSEELQANKATLVCLISDFYPGAVTVAWKADGSPVKAGVETTKPSKQSNNKYAASSYLSLTPEQWKSHRSYSCQVTHEGSTVEKTVAPTECSGRADCGFTSESYQQGVLSATILYEILLGKATLYAVLVSALVLMAMVKRKDSRGRAKRSGSGATNFSLLKQAGDVEENPGPTSATMDWIWRILFLVGAATGAHSGPQVQLQESGGGLAQAGGSLRLSCAASGRTFSMGWFRQAPGKEREFVAAITYSGGSPYYASSVRGRFTISRDNAKNTVYLQMNSLKPEDTAVYYCAANPTYGSDWNAENWGQGTQVTVSSGSGGGGSGGGGSGGGGSFEQVQLQQPGAELVKPGASVKMSCKASGYAFSSYWINWMKQKPGQGLEWIGQIYPGDGDTNYNGKFKGRATLTADTSSSTAYMQLSSLTSEDSAVYFCARSITTVVGCAMDYWGQGTSVTVSSTRASTKGPSVFPLAPSSKSTSGGTAALGCLVKDYFPEPVTVSWNSGALTSGVHTFPAVLQSSGLYSLSSVVTVPSSSLGTQTYICNVNHKPSNTKVDKRVEPKSCIPEDTFFPSPESSCDVKLVEKSFETDTNLNFQNLSVIGFRILLLKVAGFNLLMTLRLWSSRAKRSGSGVKQTLNFDLLKLAGDVESNPGPSRGHMTEYKPTVRLATRDDVPRAVRTLAAAFADYPATRHTVDPDRHIERVTELQELFLTRVGLDIGKVWVADDGAAVAVWTTPESVEAGAVFAEIGPRMAELSGSRLAAQQQMEGLLAPHRPKEPAWFLATVGVSPDHQGKGLGSAVVLPGVEAAERAGVPAFLETSAPRNLPFYERLGFTVTADVEVPEGPRTWCMTRKPGA
NFAT-GFP ASSAY: Raji (RAJI cells): 5+ (refer to approximately 5%, 10%, 20%, 30%, 40% and 50% GFP positive cells)
NFAT-GFP ASSAY: Raji-CD19-KO (RAJI-CD19-KO cells): 4+ (refer to approximately 5%, 10%, 20%, 30%, 40% and 50% GFP positive cells)
NFAT-GFP ASSAY: L363 (L363 cells): 2+ (refer to approximately 5%, 10%, 20%, 30%, 40% and 50% GFP positive cells)
NFAT-GFP ASSAY: Nalm6 (Nalm6 cells): 5+ (refer to approximately 5%, 10%, 20%, 30%, 40% and 50% GFP positive cells)
NFAT-GFP ASSAY: RS411 (RS;411): 4+ (refer to approximately 5%, 10%, 20%, 30%, 40% and 50% GFP positive cells)

B3: SEQ ID NO: 22289: NKG2D-YA fused directly to TCRb constant chain without an Ig linker (protein)
chain: MALPVTALLLPLALLLHAARPACLFNQEVQIPLTESYCGPCPKNWICYKNNCYQFFDESKNWYESQASCMSQNASLLKVYSKEDQDLLKLVKSAHWMGLVHIPTNGSWQWEDGSILSPNLLTIIEMQKGDCALYASSFKGYIENCSTPNTYICMQRTVLEDLKNVFPPEVAVFEPSEAEISHTQKATLVCLATGFYPDHVELSWWVNGKEVHSGVCTDPQPLKEQPALNDSRYCLSSRLRVSATFWQNPRNHFRCQVQFYGLSENDEWTQDRAKPVTQIVSAEAWGRADCGFTSESYQQGVLSATILYEILLGKATLYAVLVSALVLMAMVKRKDSRGRAKRSGSGATNFSLLKQAGDVEENPGPTSMDWIWRILFLVGAATGAHSFEDLFNQEVQIPLTESYCGPCPKNWICYKNNCYQFFDESKNWYESQASCMSQNASLLKVYSKEDQDLLKLVKSAHWMGLVHIPTNGSWQWEDGSILSPNLLTIIEMQKGDCALYASSFKGFIENCSTPNTYICMQRTVTRIQNPDPAVYQLRDSKSSDKSVCLFTDFDSQTNVSQSKDSDVYITDKCVLDMRSMDFKSNSAVAWSNKSDFACANAFNNSIIPEDTFFPSPESSCDVKLVEKSFETDTNLNFQNLSVIGFRILLLKVAGFNLLMTLRLWSSRAKRSGSGVKQTLNFDLLKLAGDVESNPGPSRGHMTEYKPTVRLATRDDVPRAVRTLAAAFADYPATRHTVDPDRHIERVTELQELFLTRVGLDIGKVWVADDGAAVAVWTTPESVEAGAVFAEIGPRMAELSGSRLAAQQQMEGLLAPHRPKEPAWFLATVGVSPDHQGKGLGSAVVLPGVEAAERAGVPAFLETSAPRNLPFYERLGFTVTADVEVPEGPRTWCMTRKPGA
GFP induction (LNCaP cells; LNCaP cells, only in the presence of SAR-adaptor PSMA-USC76-chVH-G4S-ULBP2-S3 (SEQ ID NO: 23114)): failed to show GFP induction

B4: 22042 (protein)
chain: MALPVTALLLPLALLLHAARPQLQLQESGPGLVKPSETLSLTCTVSGDSISSGDYYWGWIRQPPGKGLEWIGHIYYSGVTYYNPSLKSRVTISVDTSRNQFSLKLSSVTAADTAVYYCTREDSSNWRSRGQGTLVTVSSLEGSADCGFTSESYQQGVLSATILYEILLGKATLYAVLVSALVLMAMVKRKDSRGRAKRSGSGATNFSLLKQAGDVEENPGPTSMDWIWRILFLVGAATGAHSFEVQLVESGGGVVQPGRSLRLSCAASGFSFSGYGMHWVRQAPGKGLEWVAYISYDGSNKYYADSVKGRFTISRDNSKNTLYLQMNSLRAEDTAVYYCAKDPAWGLRLGESSSYDFDIWGQGTMVTVSSTRDKTHTCPPCPAIPEDTFFPSPESSCDVKLVEKSFETDTNLNFQNLSVIGFRILLLKVAGFNLLMTLRLWSSRAKRSGSGVKQTLNFDLLKLAGDVESNPGPSRGHMTEYKPTVRLATRDDVPRAVRTLAAAFADYPATRHTVDPDRHIERVTELQELFLTRVGLDIGKVWVADDGAAVAVWTTPESVEAGAVFAEIGPRMAELSGSRLAAQQQMEGLLAPHRPKEPAWFLATVGVSPDHQGKGLGSAVVLPGVEAAERAGVPAFLETSAPRNLPFYERLGFTVTADVEVPEGPRTWCMTRKPGA
NFAT-GFP ASSAY: LNCaP (LNCaP cells): +/- (refer to approximately 5%, 10%, 20%, 30%, 40% and 50% GFP positive cells)
